Reference: patent US20210032299A1 (Eli Lilly, published 2021)
Starred links: 1 amine or outer side, 2 acyl side, 3 side chain; linkers in the order of their positions; H or OH if unused. Non-standard residues stand in square brackets, D forms with d. Groups on a side chain read outwards from the residue. No end group written: not given here. *: point of attachment. C20 diacid = O=C(O)CCCCCCCCCCCCCCCCCCC(=O)*; γGlu = O=C(O)[C@H](CCC(=O)[*:2])N[*:1]; αMeL = CC(C)C[C@](C)(N)C(=O)O; AEEA = NCCOCCOCC(=O)O; Aib = CC(C)(N)C(=O)O

Columns and labels:
Assay in all cases: cell-based or functional assay
[1] = target: human glucagon receptor (human, UniProt P47871 26-477)
[2] = target: human GLP-1 receptor (human, UniProt P43220 24-463)
[3] = target: T1, human glucose-dependent insulinotropic peptide receptor (human, UniProt P48546 22-466)
T1 sequence (looked up): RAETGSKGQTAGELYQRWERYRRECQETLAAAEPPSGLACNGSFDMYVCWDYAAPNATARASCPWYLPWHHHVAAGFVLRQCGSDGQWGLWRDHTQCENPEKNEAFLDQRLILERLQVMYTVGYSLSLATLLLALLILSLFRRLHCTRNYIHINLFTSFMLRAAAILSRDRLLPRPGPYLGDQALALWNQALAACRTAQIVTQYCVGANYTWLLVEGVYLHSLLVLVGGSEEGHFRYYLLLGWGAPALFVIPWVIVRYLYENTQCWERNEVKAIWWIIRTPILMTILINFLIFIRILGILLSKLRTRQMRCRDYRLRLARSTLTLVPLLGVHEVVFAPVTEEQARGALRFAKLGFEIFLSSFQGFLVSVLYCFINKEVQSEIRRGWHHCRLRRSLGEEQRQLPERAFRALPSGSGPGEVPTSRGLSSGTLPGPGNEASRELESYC

Sequence of human glucagon receptor (P47871 26-477): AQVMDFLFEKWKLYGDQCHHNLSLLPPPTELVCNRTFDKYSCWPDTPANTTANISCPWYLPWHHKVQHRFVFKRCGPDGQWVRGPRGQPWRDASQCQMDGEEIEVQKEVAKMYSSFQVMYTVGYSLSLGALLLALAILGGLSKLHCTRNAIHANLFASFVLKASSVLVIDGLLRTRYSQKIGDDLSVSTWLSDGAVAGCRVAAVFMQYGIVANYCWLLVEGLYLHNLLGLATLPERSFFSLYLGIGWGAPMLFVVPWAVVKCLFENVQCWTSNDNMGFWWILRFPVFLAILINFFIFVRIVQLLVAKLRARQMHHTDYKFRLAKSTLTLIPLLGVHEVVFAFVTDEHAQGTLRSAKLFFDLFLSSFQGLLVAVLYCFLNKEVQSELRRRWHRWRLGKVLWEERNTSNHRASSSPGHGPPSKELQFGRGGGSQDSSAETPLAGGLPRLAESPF

B1: Example 66 (peptide)
peptide: Y[Aib]EGTFISDYSI[αMeL]LDKK([AEEA-AEEA-γGlu-C20 diacid])HQ[Aib]DFVEYLLETGPSSGAPPPS-NH2
modifications: N-terminus assumed
SMILES: CC[C@H](C)[C@H](NC(=O)[C@H](Cc1ccccc1)NC(=O)[C@@H](NC(=O)CNC(=O)[C@H](CCC(=O)O)NC(=O)C(C)(C)NC(=O)[C@@H](N)Cc1ccc(O)cc1)[C@@H](C)O)C(=O)N[C@@H](CO)C(=O)N[C@@H](CC(=O)O)C(=O)N[C@@H](Cc1ccc(O)cc1)C(=O)N[C@@H](CO)C(=O)N[C@H](C(=O)N[C@@](C)(CC(C)C)C(=O)N[C@@H](CC(C)C)C(=O)N[C@@H](CC(=O)O)C(=O)N[C@@H](CCCCN)C(=O)N[C@@H](CCCCNC(=O)COCCOCCNC(=O)COCCOCCNC(=O)CC[C@H](NC(=O)CCCCCCCCCCCCCCCCCCC(=O)O)C(=O)O)C(=O)N[C@@H](Cc1c[nH]cn1)C(=O)N[C@@H](CCC(N)=O)C(=O)NC(C)(C)C(=O)N[C@@H](CC(=O)O)C(=O)N[C@@H](Cc1ccccc1)C(=O)N[C@H](C(=O)N[C@@H](CCC(=O)O)C(=O)N[C@@H](Cc1ccc(O)cc1)C(=O)N[C@@H](CC(C)C)C(=O)N[C@@H](CC(C)C)C(=O)N[C@@H](CCC(=O)O)C(=O)N[C@H](C(=O)NCC(=O)N1CCC[C@H]1C(=O)N[C@@H](CO)C(=O)N[C@@H](CO)C(=O)NCC(=O)N[C@@H](C)C(=O)N1CCC[C@H]1C(=O)N1CCC[C@H]1C(=O)N1CCC[C@H]1C(=O)N[C@@H](CO)C(N)=O)[C@@H](C)O)C(C)C)[C@@H](C)CC
Question: What does the source list for B1?
Answer: hGcgR cAMP Rel EC50 [1]: > 5000 nM; hGLP1R cAMP Rel EC50 [2]: > 5000 nM; hGIPR cAMP Rel EC50 [3]: 0.0786 nM

B2: Example 67 (peptide)
peptide: Y[Aib]EGTFISDYSI[αMeL]LDKK([AEEA-AEEA-γGlu-C20 diacid])HQ[Aib]DFVEYLLEQGPSSGAPPPS-NH2
modifications: N-terminus assumed
SMILES: CC[C@H](C)[C@H](NC(=O)[C@H](Cc1ccccc1)NC(=O)[C@@H](NC(=O)CNC(=O)[C@H](CCC(=O)O)NC(=O)C(C)(C)NC(=O)[C@@H](N)Cc1ccc(O)cc1)[C@@H](C)O)C(=O)N[C@@H](CO)C(=O)N[C@@H](CC(=O)O)C(=O)N[C@@H](Cc1ccc(O)cc1)C(=O)N[C@@H](CO)C(=O)N[C@H](C(=O)N[C@@](C)(CC(C)C)C(=O)N[C@@H](CC(C)C)C(=O)N[C@@H](CC(=O)O)C(=O)N[C@@H](CCCCN)C(=O)N[C@@H](CCCCNC(=O)COCCOCCNC(=O)COCCOCCNC(=O)CC[C@H](NC(=O)CCCCCCCCCCCCCCCCCCC(=O)O)C(=O)O)C(=O)N[C@@H](Cc1c[nH]cn1)C(=O)N[C@@H](CCC(N)=O)C(=O)NC(C)(C)C(=O)N[C@@H](CC(=O)O)C(=O)N[C@@H](Cc1ccccc1)C(=O)N[C@H](C(=O)N[C@@H](CCC(=O)O)C(=O)N[C@@H](Cc1ccc(O)cc1)C(=O)N[C@@H](CC(C)C)C(=O)N[C@@H](CC(C)C)C(=O)N[C@@H](CCC(=O)O)C(=O)N[C@@H](CCC(N)=O)C(=O)NCC(=O)N1CCC[C@H]1C(=O)N[C@@H](CO)C(=O)N[C@@H](CO)C(=O)NCC(=O)N[C@@H](C)C(=O)N1CCC[C@H]1C(=O)N1CCC[C@H]1C(=O)N1CCC[C@H]1C(=O)N[C@@H](CO)C(N)=O)C(C)C)[C@@H](C)CC
Question: B2 was tested. Which “hGcgR cAMP Rel EC50” value [1] did it give?
Answer: > 5000 nM

Question: And the “hGLP1R cAMP Rel EC50” value [2]?
Answer: > 5000 nM

Question: What about the “hGIPR cAMP Rel EC50” value [3] of the same binder?
Answer: 0.0627 nM

B3: Example 68 (peptide)
peptide: Y[Aib]EGTFISDYSI[αMeL]LDKK([AEEA-AEEA-γGlu-C20 diacid])HQ[Aib]DFVEYLLEAGPSSGAPPPS-NH2
modifications: N-terminus assumed
SMILES: CC[C@H](C)[C@H](NC(=O)[C@H](Cc1ccccc1)NC(=O)[C@@H](NC(=O)CNC(=O)[C@H](CCC(=O)O)NC(=O)C(C)(C)NC(=O)[C@@H](N)Cc1ccc(O)cc1)[C@@H](C)O)C(=O)N[C@@H](CO)C(=O)N[C@@H](CC(=O)O)C(=O)N[C@@H](Cc1ccc(O)cc1)C(=O)N[C@@H](CO)C(=O)N[C@H](C(=O)N[C@@](C)(CC(C)C)C(=O)N[C@@H](CC(C)C)C(=O)N[C@@H](CC(=O)O)C(=O)N[C@@H](CCCCN)C(=O)N[C@@H](CCCCNC(=O)COCCOCCNC(=O)COCCOCCNC(=O)CC[C@H](NC(=O)CCCCCCCCCCCCCCCCCCC(=O)O)C(=O)O)C(=O)N[C@@H](Cc1c[nH]cn1)C(=O)N[C@@H](CCC(N)=O)C(=O)NC(C)(C)C(=O)N[C@@H](CC(=O)O)C(=O)N[C@@H](Cc1ccccc1)C(=O)N[C@H](C(=O)N[C@@H](CCC(=O)O)C(=O)N[C@@H](Cc1ccc(O)cc1)C(=O)N[C@@H](CC(C)C)C(=O)N[C@@H](CC(C)C)C(=O)N[C@@H](CCC(=O)O)C(=O)N[C@@H](C)C(=O)NCC(=O)N1CCC[C@H]1C(=O)N[C@@H](CO)C(=O)N[C@@H](CO)C(=O)NCC(=O)N[C@@H](C)C(=O)N1CCC[C@H]1C(=O)N1CCC[C@H]1C(=O)N1CCC[C@H]1C(=O)N[C@@H](CO)C(N)=O)C(C)C)[C@@H](C)CC
Question: Which results are given for B3?
Answer: hGcgR cAMP Rel EC50 [1]: 3030 nM; hGLP1R cAMP Rel EC50 [2]: > 5000 nM; hGIPR cAMP Rel EC50 [3]: 0.0768 nM

B4: Example 69 (peptide)
peptide: Y[Aib]EGTFISDYSI[αMeL]LDKK([AEEA-AEEA-γGlu-C20 diacid])HQ[Aib]DFVEYLLEGGPSSGAPPPS-NH2
modifications: N-terminus assumed
SMILES: CC[C@H](C)[C@H](NC(=O)[C@H](Cc1ccccc1)NC(=O)[C@@H](NC(=O)CNC(=O)[C@H](CCC(=O)O)NC(=O)C(C)(C)NC(=O)[C@@H](N)Cc1ccc(O)cc1)[C@@H](C)O)C(=O)N[C@@H](CO)C(=O)N[C@@H](CC(=O)O)C(=O)N[C@@H](Cc1ccc(O)cc1)C(=O)N[C@@H](CO)C(=O)N[C@H](C(=O)N[C@@](C)(CC(C)C)C(=O)N[C@@H](CC(C)C)C(=O)N[C@@H](CC(=O)O)C(=O)N[C@@H](CCCCN)C(=O)N[C@@H](CCCCNC(=O)COCCOCCNC(=O)COCCOCCNC(=O)CC[C@H](NC(=O)CCCCCCCCCCCCCCCCCCC(=O)O)C(=O)O)C(=O)N[C@@H](Cc1c[nH]cn1)C(=O)N[C@@H](CCC(N)=O)C(=O)NC(C)(C)C(=O)N[C@@H](CC(=O)O)C(=O)N[C@@H](Cc1ccccc1)C(=O)N[C@H](C(=O)N[C@@H](CCC(=O)O)C(=O)N[C@@H](Cc1ccc(O)cc1)C(=O)N[C@@H](CC(C)C)C(=O)N[C@@H](CC(C)C)C(=O)N[C@@H](CCC(=O)O)C(=O)NCC(=O)NCC(=O)N1CCC[C@H]1C(=O)N[C@@H](CO)C(=O)N[C@@H](CO)C(=O)NCC(=O)N[C@@H](C)C(=O)N1CCC[C@H]1C(=O)N1CCC[C@H]1C(=O)N1CCC[C@H]1C(=O)N[C@@H](CO)C(N)=O)C(C)C)[C@@H](C)CC
Question: Which “hGcgR cAMP Rel EC50” value [1] does the source give for B4 here?
Answer: 803 nM

Question: And the “hGLP1R cAMP Rel EC50” value [2]?
Answer: > 5000 nM

Question: What about the “hGIPR cAMP Rel EC50” value [3] of the same binder?
Answer: 0.0302 nM
